Reference: patent US20090149381

Target: human recombinant PEDF (pigment epithelium-derived factor) (UniProt P36955)
Sequence (P36955 20-418): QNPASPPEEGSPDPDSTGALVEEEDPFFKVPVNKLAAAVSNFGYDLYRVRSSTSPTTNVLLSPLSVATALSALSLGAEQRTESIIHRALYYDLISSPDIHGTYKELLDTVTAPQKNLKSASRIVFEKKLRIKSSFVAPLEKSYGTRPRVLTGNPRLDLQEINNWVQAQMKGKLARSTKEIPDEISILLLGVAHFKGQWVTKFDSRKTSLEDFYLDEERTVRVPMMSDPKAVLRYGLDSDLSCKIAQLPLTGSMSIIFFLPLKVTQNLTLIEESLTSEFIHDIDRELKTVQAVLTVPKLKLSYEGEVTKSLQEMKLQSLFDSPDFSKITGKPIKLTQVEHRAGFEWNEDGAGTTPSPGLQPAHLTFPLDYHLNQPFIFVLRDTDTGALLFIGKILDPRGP

Sequence of human recombinant MMP-9 (chain, as listed by the source): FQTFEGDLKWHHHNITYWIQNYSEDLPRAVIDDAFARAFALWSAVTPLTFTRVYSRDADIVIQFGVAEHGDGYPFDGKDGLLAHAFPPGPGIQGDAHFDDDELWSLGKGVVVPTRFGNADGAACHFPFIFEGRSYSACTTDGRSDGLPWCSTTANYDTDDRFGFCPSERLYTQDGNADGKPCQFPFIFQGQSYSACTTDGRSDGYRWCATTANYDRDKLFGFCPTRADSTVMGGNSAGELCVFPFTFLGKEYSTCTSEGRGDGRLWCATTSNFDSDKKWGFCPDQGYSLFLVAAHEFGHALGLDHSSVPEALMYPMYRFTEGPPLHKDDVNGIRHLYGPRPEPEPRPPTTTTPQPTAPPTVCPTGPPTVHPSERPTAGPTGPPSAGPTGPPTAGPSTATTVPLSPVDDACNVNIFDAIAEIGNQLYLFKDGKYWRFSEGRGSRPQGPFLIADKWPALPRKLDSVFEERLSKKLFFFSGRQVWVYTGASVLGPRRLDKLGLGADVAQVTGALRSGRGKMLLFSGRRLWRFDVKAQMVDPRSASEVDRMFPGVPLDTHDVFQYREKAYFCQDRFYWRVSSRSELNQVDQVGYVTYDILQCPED

Substance | PEDF fragments observed by SDS-PAGE after protease treatment
activated MMP-2 | resulted in the generation of multiple PEDF fragments that were observed by SDS-PAGE. These fragments had estimated relative molecular weights of 44 and 42 KDa
human recombinant MMP-9 | resulted in the generation of multiple PEDF fragments that were observed by SDS-PAGE. These fragments had estimated relative molecular weights of 44 and 42 KDa
MMP-7 | resulted in the generation of multiple PEDF fragments that were observed by SDS-PAGE. These fragments had estimated relative molecular weights of 44 and 42 KDa
